The source of these data is PMC3975686 (Journal of proteome research, 2013).

What all share (assay): ITC
Background: Isothermal titration calorimetry measures the heat released or taken up as one component is titrated into another.

The target in one test is T1, human RhoGDI (human, UniProt P52565 1-204).
T1 sequence (looked up): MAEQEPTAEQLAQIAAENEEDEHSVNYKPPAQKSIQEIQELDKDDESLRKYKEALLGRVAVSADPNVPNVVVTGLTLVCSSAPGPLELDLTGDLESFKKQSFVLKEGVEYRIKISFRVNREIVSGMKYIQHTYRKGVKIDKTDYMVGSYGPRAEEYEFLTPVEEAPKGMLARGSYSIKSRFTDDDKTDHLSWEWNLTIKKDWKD

The target of test [1] is T2, ezrin FERM domain (residues 1-297) (human, UniProt P15311 1-297).
T2 sequence (P15311 1-297): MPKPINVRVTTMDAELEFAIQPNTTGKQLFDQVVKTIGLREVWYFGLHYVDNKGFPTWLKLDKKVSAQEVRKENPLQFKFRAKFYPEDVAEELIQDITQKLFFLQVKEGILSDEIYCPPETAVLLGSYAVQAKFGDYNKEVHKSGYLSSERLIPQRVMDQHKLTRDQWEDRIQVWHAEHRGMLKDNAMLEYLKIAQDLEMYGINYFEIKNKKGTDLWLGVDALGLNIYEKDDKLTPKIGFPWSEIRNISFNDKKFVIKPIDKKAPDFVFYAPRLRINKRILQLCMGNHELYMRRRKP
Test [2] has as its target T2, ezrin FERM domain (residues 1-297). This is another data set of the same source.

B1: human Cdc42C188S, GDP-bound (natural protein)
chain: not shown
One may read the stoichiometry N as the number of molecules, sites or subunits per partner or assembly. In the case of B1, in the test with human RhoGDI, the Ka came out at 55700 ± 940 M⁻¹, the dH was -13.29 ± 0.08 kcal/mol and the “stoichiometry N” value is 0.853 ± 0.0003.

B2: IQGAP1 Repeats (IQGAP1 residues 156-672), tag removed (domain or fragment, human, UniProt P46940 156-672, looked up)
chain: SLYLFKLGLAPQIQDLYGKVDFTEEEINNMKTELEKYGIQMPAFSKIGGILANELSVDEAALHAAVIAINEAIDRRIPADTFAALKNPNAMLVNLEEPLASTYQDILYQAKQDKMTNAKNRTENSERERDVYEELLTQAEIQGNINKVNTFSALANIDLALEQGDALALFRALQSPALGLRGLQQQNSDWYLKQLLSDKQQKRQSGQTDPLQKEELQSGVDAANSAAQQYQRRLAAVALINAAIQKGVAEKTVLELMNPEAQLPQVYPFAADLYQKELATLQRQSPEHNLTHPELSVAVEMLSSVALINRALESGDVNTVWKQLSSSVTGLTNIEEENCQRYLDELMKLKAQAHAENNEFITWNDIQACVDHVNLVVQEEHERILAIGLINEALDEGDAQKTLQALQIPAAKLEGVLAEVAQHYQDTLIRAKREKAQEIQDESAVLWLDEIQGGIWQSNKDTQEAQKFALGIFAINEAVESGDVGKTLSALRSPDVGLYGVIPECGETYHSDLAEAK
As for B2, in test [1], the dH was -49.1 ± 15.6 kcal/mol and the “stoichiometry N” value was determined as 0.274 ± 0.0243.

B3: ezrin C-terminal fragment (residues 477-586) (domain or fragment, human, UniProt P15311 477-586, looked up)
chain: VYEPVSYHVQESLQDEGAEPTGYSAELSSEGIRDDRNEEKRITEAEKNERVQRQLLTLSSELSQARDENKRTHNDIIHNENMRQGRDKYKTLRQIRQGNTKQRIDEFEAL
In the case of B3, in test [2], the Ka was 1.13e+06 M⁻¹.

B4: IQGAP2 Repeats (IQGAP2 residues 211-591) (domain or fragment, human, UniProt Q13576 211-591, looked up)
chain: EAALHAAVIAINEAVEKGIAEQTVVTLRNPNAVLTLVDDNLAPEYQKELWDAKKKKEENARLKNSCISEEERDAYEELLTQAEIQGNINKVNRQAAVDHINAVIPEGDPENTLLALKKPEAQLPAVYPFAAAMYQNELFNLQKQNTMNYLAHEELLIAVEMLSAVALLNQALESNDLVSVQNQLRSPAIGLNNLDKAYVERYANTLLSVKLEVLSQGQDNLSWNEIQNCIDMVNAQIQEENDRVVAVGYINEAIDEGNPLRTLETLLLPTANISDVDPAHAQHYQDVLYHAKSQKLGDSESVSKVLWLDEIQQAVDDANVDKDRAKQWVTLVVDVNQCLEGKKSSDILSVLKSSTSNANDIIPECADKYYDALVKAKELKS
In the case of B4, in test [1], the dH is -3.98 ± 0.39 kcal/mol and the “stoichiometry N” value came to 1.33 ± 0.0688.
